The values that follow come from patent US11654198B2, “Application of combination of polyethylene glycol and local anesthetic in non-narcotic analgesia” (JENKEM TECHNOLOGY CO., LTD. (TIANJIN), priority 2016, dated 2023).

Series [1] has as its system SD rats. Nature of the series: Sensory block, hot plate paw withdrawal time, non-anesthetic analgesic effect of PEG-bupivacaine conjugate (Example 30). It is filed as in vivo, rat. Conditions: for hot plate paw withdrawal time: conjugate 10/11/12 at 32/24/48 mg/kg (as bupivacaine); for time the analgesic effect could reach: conjugate 10 at 32 mg/kg, conjugate 11 at 24 mg/kg; for time after administration at which hot plate paw withdrawal time is significantly higher than vehicle group: conjugate 10/11/12 at 32/24/48 mg/kg, direct injection. How it is done:
(§1) Male Sprague-Dawley rats are used in the study, about 230-250 g when accepted, and acclimated for at least 7 days prior to the experiment. Two rats are raised in each cage and fed freely with feed and water. The environmental conditions of the breeding room are 23±2° C., and the relative humidity is 40% to 70%, alternating 12 hours of light and dark. […] The qualified rats are randomly divided into 4 groups, 4 rats in each group, which are labeled as groups G1, G2, G3, and G4, respectively. Administration by direct injection in the sciatic nerve is adopted, and with the rat's back facing up, the drug is injected around the right sciatic nerve trunk between the right hip and the right thigh.
Sensory block (hot plate paw withdrawal time): The sensory block of the rat is examined by a hot plate method, and the hot plate is heated to (56±1)° C., and one of the hind paws of the rat is placed on the hot plate. The other hind paw is in the laboratory room temperature condition, and the tested paw withdrawal time is observed and recorded. The average value of two to three times measured is recorded as a pain threshold. In order to avoid the damage of the experimental animal body, if the rat has no paw withdrawal in the hot plate experiment for more than 15 s, the rat should be removed from the hot plate, and the experimental result is recorded as 15 s. The time point for determining the paw withdrawal time of the hot plate is before administration, and 0.5 h, 1 h, 2 h, 4 h, 6 h, 8 h, 10 h, 12 h, and 24 h after administration.

The test system of series [2] is SD rats. Nature of the series: Motor block four-level score (Example 30). It is filed as in vivo, rat. More on the design: key to motor function score: 1 = normal motor function to 4 = complete loss with gait defect. The settings on record: for motor function score: direct injection around sciatic nerve, conjugate 10/11/12 at 32/24/48 mg/kg (as bupivacaine); for effect on motor function of SD rats: conjugate 10 at 32 mg/kg, conjugate 11 at 24 mg/kg; for motor scores at different time points versus vehicle group: direct injection, conjugate 10/11/12 at 32/24/48 mg/kg. How it is done: as §1
Motor block (four-level score): The exercise condition of each group of rats is evaluated by the motor block four-level scoring method. The scoring criteria are: paws can be dorsiflexed, stretched, valgus and other normal exercises, scored by 1 point; paws can be dorsiflexed, bendable or after the adduction, although the paws can be stretched after the adduction, the stretching ability is weakened, scored by 2 points; the paw can perform dorsiflexion, but no longer has the ability to stretch, scored by 3 points; the paws completely lose the ability of dorsiflexion, curling and stretching, and the rats produce a gait defect, scored by 4 points. The time point for measuring the motor block score is before administration, and 0.5 h, 1 h, 2 h, 4 h, 6 h, 8 h, 12 h, and 24 h after administration.

Series [3] can be described thus: PEG-bupivacaine conjugate hydrolysis drug release in pH 7.4 PBS buffer (Example 29). It is filed as physicochemical. The settings on record: 37° C., about 2 mg/mL. How it is done:
Preparation of isotonic phosphate buffer (0.01 mol/L, pH 7.4, PBS): 8.0 g of NaCl, 0.2 g of KH2PO4, 2.9 g of Na2HPO4.12H2O and 0.2 g of KCl are added sequentially to a quantitative container, and an appropriate amount of distilled water is added to dissolve, and then the volume is adjusted to 1000 mL and the obtained buffer is stored in a refrigerator at 4° C. for use.
Hydrolysis drug release for the PEG-bupivacaine conjugate: PEG-bupivacaine products (bupivacaine conjugate 6, prepared in Example 9 of the present invention; bupivacaine conjugate 10, prepared in Example 16 of the present invention) are dissolved in PBS buffer at about 2 mg/mL and placed in a water-bathing constant temperature vibrator at 37° C. Samples are taken at 0 h, 6 h, 12 h, 24 h, 48 h, 72 h, 96 h, 120 h and 144 h, and the content of free bupivacaine is determined by HPLC.

The test system of a further series is experimental animals. Nature of the series: Duration of non-anesthetic analgesic effect (statement in background). It is filed as in vivo. The settings on record: single dose.
Where [4] appears, read: 0.5 h after direct injection around sciatic nerve.
Where [5] appears, read: 2 h after direct injection around sciatic nerve.
Setting [6] is: 4 h after direct injection around sciatic nerve.
Where [7] appears, read: 6 h after direct injection around sciatic nerve.
[8] abbreviates: 8 h after direct injection around sciatic nerve.
Where [9] appears, read: 10 h after direct injection around sciatic nerve.
[10] abbreviates: 12 h after direct injection around sciatic nerve.
[11] abbreviates: 24 h after direct injection around sciatic nerve.
Where [12] appears, read: l h after direct injection around sciatic nerve.

Consider “8-Arm-PEG-Bupivacaine, 20K [bupivacaine conjugate 10]”, for which the “hot plate paw withdrawal time” value came to 11.85 s in the series with SD rats [1] (setting [4]); 8.91 s with SD rats [1] (setting [5]); 10.74 s in the series with SD rats [1] (setting [6]); 11.92 s with SD rats [1] (setting [7]); 8.49 s in the series with SD rats [1] (setting [8]); 6.64 s in the series with SD rats [1] (setting [9]). Besides, the “hot plate paw withdrawal time” value in the series with SD rats [1] (setting [10]) is reported as 3.82 s; in the series on SD rats [1] (setting [11]) it was 3.81 s; with SD rats [1] (setting [12]), 11.98 s. Further, the “time the analgesic effect could reach” value in the series on SD rats [1] turned out to be 8 h. In addition, the motor function score with SD rats [2] (0 h (before administration)) came to 1 ± 0; in the series on SD rats [2] (0.5 h), 1 ± 0; in the series on SD rats [2] (1 h), 1.75 ± 0.5; in the series with SD rats [2] (2 h), 1.75 ± 0.5; in the series with SD rats [2] (4 h), 1.75 ± 0.5; in the series with SD rats [2] (6 h) it was 1.75 ± 0.5. In addition, the motor function score in the series on SD rats [2] (8 h) is listed as 1.75 ± 0.5; with SD rats [2] (12 h), 1 ± 0; in the series on SD rats [2] (24 h), 1 ± 0. Besides, in the series with SD rats [2], the “effect on motor function of SD rats” value is given as “does not affect the motor function”. For the same compound, the “motor scores at different time points versus vehicle group” value with SD rats [2] is on record as “not significantly different”. In addition, the PEG-bupivacaine hydrolysis rate in series [3] (0 h) is recorded as 0.43%; in series [3] (6 h) it was 15.03%; in series [3] (12 h), 25.19%; in series [3] (24 h), 40.37%; in series [3] (48 h), 61.72%; in series [3] (72 h), 76.25%. Also, the PEG-bupivacaine hydrolysis rate in series [3] (96 h) came to 87.28%; in series [3] (120 h), 92.76%; in series [3] (144 h), 96.13%.
Consider “8-Arm-PEG-Bupivacaine, 20K [bupivacaine conjugate 11]”, for which the “hot plate paw withdrawal time” value in the series with SD rats [1] (setting [4]) worked out at 9.60 s; in the series on SD rats [1] (setting [5]), 5.02 s; in the series on SD rats [1] (setting [6]) it was 6.65 s; in the series with SD rats [1] (setting [7]), 6.44 s; in the series on SD rats [1] (setting [8]), 3.69 s; with SD rats [1] (setting [9]) it was 3.24 s. Moreover, the “hot plate paw withdrawal time” value in the series with SD rats [1] (setting [10]) stood at 2.62 s; with SD rats [1] (setting [11]), 3.77 s; in the series on SD rats [1] (setting [12]) it was 9.99 s. Moreover, the “time after administration at which hot plate paw withdrawal time is significantly higher than vehicle group” value in the series on SD rats [1] is at most 6 h. Also, in the series on SD rats [1], the “time the analgesic effect could reach” value is given as 6 h. Besides, the motor function score in the series with SD rats [2] (0 h (before administration)), in the series on SD rats [2] (0.5 h), in the series on SD rats [2] (1 h), in the series on SD rats [2] (2 h), with SD rats [2] (4 h) and with SD rats [2] (6 h) was 1 ± 0 throughout. The motor function score with SD rats [2] (8 h), in the series with SD rats [2] (12 h) and in the series on SD rats [2] (24 h) was 1 ± 0 throughout. Further, the “effect on motor function of SD rats” value in the series with SD rats [2] is reported as “does not affect the motor function”. Further, the “motor scores at different time points versus vehicle group” value in the series with SD rats [2] is given as “not significantly different”.
For “8-Arm-PEG-Bupivacaine, 20K [bupivacaine conjugate 12]”, the “hot plate paw withdrawal time” value is recorded as 6.49 s with SD rats [1] (setting [4]); 3.52 s in the series on SD rats [1] (setting [5]); 4.82 s in the series on SD rats [1] (setting [6]); 4.59 s in the series with SD rats [1] (setting [7]); 4.34 s with SD rats [1] (setting [8]); 4.30 s with SD rats [1] (setting [9]). For the same compound, the “hot plate paw withdrawal time” value with SD rats [1] (setting [10]) stood at 2.80 s; in the series on SD rats [1] (setting [11]) it was 3.25 s; in the series with SD rats [1] (setting [12]), 6.77 s. In addition, the “time after administration at which hot plate paw withdrawal time is significantly higher than vehicle group” value with SD rats [1] was at most 2 h. Besides, the motor function score with SD rats [2] (0 h (before administration)), in the series on SD rats [2] (0.5 h), in the series with SD rats [2] (1 h), with SD rats [2] (2 h), in the series on SD rats [2] (4 h) and in the series on SD rats [2] (6 h) was 1 ± 0 throughout. Also, the motor function score in the series on SD rats [2] (8 h), in the series with SD rats [2] (12 h) and in the series on SD rats [2] (24 h) was 1 ± 0 each time. Moreover, in the series on SD rats [2], the “motor scores at different time points versus vehicle group” value is listed as “not significantly different”.
As for `CCCCN1CCCCC1C(=O)Nc1c(C)cccc1C` (stereo not shown) [bupivacaine], the “time the non-anesthetic analgesic effect is maintained” value in the series with experimental animals is listed as “at most 1 hour”.
